Laboratory results published in patent publication US20180022822A1, “NOVEL ANTI-FIBROBLAST ACTIVATION PROTEIN (FAP) BINDING AGENTS AND USES THEREOF” (Mabimmune Diagnostics AG, priority 2016, published 2018).

Experiments:
[1] = biological target: T1, rhFAP and FAP SB9 oligopeptidase homologues (rhDPPIV, rhPOP/PREP, rhDPP8, rhDPP9) (Homo sapiens, UniProt Q12884); assay: ELISA binding to SB9 oligopeptidase family enzymes; conditions: sandwich ELISA affinity (EC50) assays
T1 construct: purchased Sino Biologicals 10464-H07H
T1 sequence (Q12884 26-760 limits assumed): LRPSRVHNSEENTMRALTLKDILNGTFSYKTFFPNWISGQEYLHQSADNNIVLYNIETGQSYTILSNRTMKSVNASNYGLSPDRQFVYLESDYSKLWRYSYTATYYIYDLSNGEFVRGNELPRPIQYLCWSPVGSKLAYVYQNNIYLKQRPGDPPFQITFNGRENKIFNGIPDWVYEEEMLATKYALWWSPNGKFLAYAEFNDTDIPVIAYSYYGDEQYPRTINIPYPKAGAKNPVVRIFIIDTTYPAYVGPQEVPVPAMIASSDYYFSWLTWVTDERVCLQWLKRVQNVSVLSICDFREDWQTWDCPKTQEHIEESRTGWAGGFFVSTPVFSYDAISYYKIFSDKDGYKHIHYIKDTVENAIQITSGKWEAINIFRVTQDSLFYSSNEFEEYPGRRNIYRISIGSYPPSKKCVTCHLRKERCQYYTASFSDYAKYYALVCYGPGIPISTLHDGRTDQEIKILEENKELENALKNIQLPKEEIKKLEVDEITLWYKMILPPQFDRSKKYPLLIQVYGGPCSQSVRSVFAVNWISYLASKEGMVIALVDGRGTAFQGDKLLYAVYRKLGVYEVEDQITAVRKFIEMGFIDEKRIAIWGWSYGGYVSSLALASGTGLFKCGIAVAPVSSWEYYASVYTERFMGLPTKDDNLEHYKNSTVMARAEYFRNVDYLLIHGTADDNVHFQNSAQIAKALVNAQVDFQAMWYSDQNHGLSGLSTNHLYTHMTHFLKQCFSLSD
Protocol: To determine the binding efficiency and inhibitory ability of NI-206.82C2 against other members of the SB9 oligopeptidase family that have sequence similarity to FAP, indirect ELISA and inihibiton assays were performed on active enzyme targets. Active recombinant human enzymes evaluated in this assay include: Fibroblast Activation Protein (FAP; Sino Biologicals, 10464-H07H), Dipeptidyl Peptidase IV (DPPIV, BPS Bioscience 80040), Dipeptidyl Peptidase 8 (DPP8, BPS Bioscience 80080), Dipeptidyl Peptidase 9 (DPP9, BPS Bioscience 80080), and Prolyl Oligopeptidase/Prolyl Endopeptidase (POP/PREP, BPS Bioscience 80105). Each recombinant peptidase was expressed with a purification tag, and attached to the 96 well ELISA plate using either a mouse anti-Histidine antibody (CloneTech), or a mouse anti-Glutathione S-transferase (GST, Sino Biologicals, 111213-MM02) tag antibody. Each enzyme was validated to bind and remained active on the ELISA plate using enzyme specific fluorogenic substrates. H-Gly-Pro-AMC (ATT Bioquest, 13450) was used to validate the presence and activity of DPP4, DPP9, and DPP8. […] Following a washing step, bound antibody was detected using 3,3′,5,5′-Tetramethylbenzidine (TMB) substrate. The reaction was stopped after 10 minutes by adding 2N H2SO4 and the resulting change in optical density was quantified using an ELISA plate reader at […] absorbance (FIG. 7 E).

[2] = tested on: CT-26 syngeneic liver metastasis; assay: immunofluorescence on murine CT-26 colorectal cancer tissue sections; design: species or system mouse; conditions: Cy5 labelled antibody, 10 μg/mL
Protocol: NI-206.82C2 was prelabelled with Cyanine 5 antibody labeling kit (Innova Biosciences, 342-0010), and sufficient antibody labelling was validated with a photospectrometer. Cryosections of mouse livers containing syngeneic CT-26 liver metastasis were allowed to dry for 30 min at room temperature the fixed for 10 min in 4% formalin in PBS. Slides were then washed 3 times for 5 minutes in PBS and blocked for 1 hr at room temperature with 5% bovine serum albumin in PBS.
The slides were then incubated overnight at 4° C. with staining solution containing DAPI at 0.5 μg/mL, and Alexa 547 phalloidin (Invitrogen) according to the manufacturer's instructions, and either Cy5 labelled NI-206.82C2 or a Cy5 labelled isotype-matched control antibody 3A1 at a concentration of 10 μg/mL, in blocking solution with 0.5% Triton X100. Slides were then washed 3 times in PBS, mounted in Lisbeth's mounting medium, and imaged with an SP8 confocal microscope (Leica Microsystems).

B1: NI-206.82C2: human-derived recombinant anti-FAP antibody; VH SEQ ID NO: 2 or 4 (PIMC), VL SEQ ID NO: 6 (antibody, V domains shown)
VH: QVQLQQSGPGLVKPSQTLSLTCAISGDSVSSNSVTWNWIRQSPSRGLEWLGRTYYRSKWYNDYAVSVKGRITINPDTSKNQFYLQLKSVTPEDAAVYYCARDSSILYGDYWGQGTLVTVSS
VL: QAVLTQPSSLSASPGASASLTCTLPSGINVGTYRIFWFQQKPGSPPQYLLSYKSDSDNHQGSGVPSRFSGSKDASANAGILLISGLQSEDEADYYCMIWHSSAWVFGGGTKLTVL
binding selectivity for rhFAP over SB9 oligopeptidase homologues [1]: selectively binds to recombinant human FAP (rhFAP) but not FAP SB9 oligopeptidase homologues
staining of murine CT-26 liver metastasis sections [2]: found around the perimeter
